Data taken from the supplement of paper PMC9732359.
± gives the uncertainty stated by the source.

Assay: protein stability index of a GFP-peptide fusion (yeast GPS) (PSI 1-4); higher = more stable; sorted into four equal gates, so the index is relative within each strain
Outline: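 Plasmids isolated from each sorting gate were PCR-amplified and Illumina-sequenced, and barcodes assigned the reads to strains. The gates, four of equal size, were set by GFP/Cherry fluorescence ratio on mid-log cultures in leucine-free medium. These cultures were yeast carrying a pooled library of tiled 17-residue yeast protein peptides fused downstream of GFP on a plasmid that also expresses Cherry. The protein stability index is the sum of every gate's read frequency times its gate number.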

Sequence | protein stability index (doa10∆) | protein stability index (pdr5∆) | protein stability index (ubr1∆) | protein stability index (san1∆)
ISKTVRFNVVKVSAAAG [RPS11A] | 3.19 ± 0.17 | 1.6 ± 0.13 | 1.64 ± 0.11 | –
ISLEALNFYITNVPKAK [SIR3] | 2.67 ± 0.065 | 2.82 ± 0.063 | 2.87 ± 0.035 | 2.62 ± 0.053
ISMLVTQLQRGGTSDMN [CSI1] | 3.19 ± 0.1 | 2.53 ± 0.12 | 2.53 ± 0.067 | 2.5 ± 0.11
ISQKLTNVNVKIKDVQQ [SMC3] | 1.97 ± 0.12 | 2.34 ± 0.064 | 2.32 ± 0.19 | 2.27 ± 0.14
ISQVSSIHAIGSIKEDY [RPB7] | 2.27 ± 0.077 | 2.65 ± 0.067 | 2.79 ± 0.1 | 2.32 ± 0.084
ISSEKLLTLTNAANVPV [RPP1A] | 2.95 ± 0.091 | 2.9 ± 0.1 | 3 ± 0.082 | 2.93 ± 0.065
ISSLGYRSHIFATNEER [SWI3] | 2.3 ± 0.072 | 1.96 ± 0.056 | 2.33 ± 0.045 | 2.34 ± 0.055
ISSRTYGQRAVLKFAAH [RPS0B] | 1.78 ± 0.064 | 2.22 ± 0.095 | 1.64 ± 0.069 | 2.26 ± 0.09
ISTGGFMSNDGPTLEKY [SNU114] | 2.22 ± 0.068 | 2.57 ± 0.065 | 2.12 ± 0.053 | 2.31 ± 0.071
ISVSSRSDREYPLLIRM [SRP14] | 2.56 ± 0.097 | 2.44 ± 0.1 | 2.34 ± 0.072 | 1.94 ± 0.13
ISVTDTEVERAKSLLKL [COR1] | 3.3 ± 0.1 | 3.26 ± 0.084 | 3.24 ± 0.084 | 3.08 ± 0.053
ITDKTIKAFMDSTIGNS [IRR1] | 2.54 ± 0.15 | 2.62 ± 0.14 | 2.41 ± 0.14 | 3.4 ± 0.15
ITFLIEKAKEMIRLLGS [ECM29] | 2.6 ± 0.12 | 2.26 ± 0.1 | 1.7 ± 0.12 | 2.9 ± 0.11
ITIQLTRDVEPENLQVT [BRR2] | 2.79 ± 0.083 | 3.04 ± 0.13 | 2.85 ± 0.078 | –
ITKEVTQVNILKENNAI [YIL149C/MLP2] | 2.91 ± 0.057 | 3.14 ± 0.065 | 3.17 ± 0.044 | 2.87 ± 0.085
ITKLNKEIRAFDKLLNI [SRB4] | 3.41 ± 0.098 | 3.44 ± 0.088 | 3.15 ± 0.12 | 3.36 ± 0.077
ITLIDSASLHLNYGVYL [RET1] | 2.4 ± 0.076 | 2.27 ± 0.081 | 2.4 ± 0.063 | 2.83 ± 0.097
ITMPATNGKPDMAILER [ARP7] | 3.17 ± 0.059 | 3.08 ± 0.059 | 3.18 ± 0.042 | 3.06 ± 0.041
ITPSAMKLVPSIPPATI [RPB5] | 2.32 ± 0.054 | 2.56 ± 0.069 | 2.5 ± 0.054 | 2.35 ± 0.057
ITRFGLSKMRDSVLQLA [RPO31] | 3.32 ± 0.14 | 2.96 ± 0.14 | 3.44 ± 0.15 | 3.17 ± 0.08
ITYALSGYVRSRGESDD [RPS21B] | 1.74 ± 0.075 | 2.81 ± 0.11 | 2.84 ± 0.058 | 2.44 ± 0.092
IVACELILSGDTTANNG [YJL039C/NUP192] | 2.66 ± 0.067 | 2.46 ± 0.068 | 1.7 ± 0.032 | 2 ± 0.077
IVALSSEEINQYVTQIE [PRE6] | 3.1 ± 0.053 | 2.97 ± 0.053 | 3.05 ± 0.042 | 3.11 ± 0.037
IVEADEKKGIVQASVTS [RET1] | 2.66 ± 0.15 | 2.6 ± 0.11 | 1.7 ± 0.086 | –
IVGQKNLNRAFNGDQVI [DIS3] | 3.12 ± 0.078 | 2.83 ± 0.087 | 2.98 ± 0.078 | 2.76 ± 0.057
IVLSKAASALDEKEKQL [SIR4] | 3.35 ± 0.1 | 3.03 ± 0.11 | 3.57 ± 0.21 | 3.04 ± 0.17
IVMQLRKCCNHPYLFEG [ISW2] | 2.78 ± 0.087 | 2.53 ± 0.11 | 2.78 ± 0.11 | 2.74 ± 0.069

Sequence | protein stability index (doa10∆) | protein stability index (pdr5∆) | protein stability index (ubr1∆) | protein stability index (san1∆)
IVRDLDRPGSKFHKREV [RPL3] | 3.07 ± 0.14 | 3.44 ± 0.28 | 3.14 ± 0.16 | 2.92 ± 0.3
IVSEDHIILDTISECNL [MED1] | 2.87 ± 0.093 | 3.19 ± 0.081 | 2.83 ± 0.12 | 3.2 ± 0.077
IVVATEHNPSAHTASVG [COR1] | 2.7 ± 0.07 | 2.46 ± 0.088 | 1.77 ± 0.037 | 2.27 ± 0.06
IWPAEDALRRGMLAMAS [MED4] | 3.12 ± 0.11 | 3.24 ± 0.099 | 3.27 ± 0.086 | 3.05 ± 0.075
IYAGYDDRYGYQLYTSN [PRE9] | 2.99 ± 0.16 | 2.14 ± 0.25 | 2.34 ± 0.16 | 1.86 ± 0.17
IYDFHKMENLMRLIKRV [YJL039C/NUP192] | 2.58 ± 0.097 | 2.67 ± 0.079 | 2.57 ± 0.073 | 2.3 ± 0.062
IYDKKDHKYVCTFSMEP [SRB8] | 2.85 ± 0.076 | 2.99 ± 0.11 | 3 ± 0.069 | 2.78 ± 0.06
IYEEVRAVLKSFLESVI [HHF1] | 3 ± 0.21 | 3.13 ± 0.15 | 2.66 ± 0.097 | 2.26 ± 0.15
IYFTVPNEFEIQLSTVN [RGR1] | 2.21 ± 0.064 | 2.22 ± 0.058 | 2.2 ± 0.042 | 1.88 ± 0.061
IYGVEWLIEGKLYVDAV [YDL116W/NUP84] | – | 1.2 ± 0.082 | – | –
IYNELSYELIKEECQIE [CSN9] | 2.47 ± 0.08 | 2.66 ± 0.06 | 3 ± 0.048 | 2.73 ± 0.057
IYQTLIALNLDTTVNDC [SNF2] | 2.19 ± 0.035 | 2.53 ± 0.04 | 2.35 ± 0.033 | 2.25 ± 0.054
IYRGVLNDENSDDYDNE [SMC1] | 3.19 ± 0.24 | 3.41 ± 0.15 | 3.42 ± 0.14 | 3.21 ± 0.24
IYYDSYIHLAYSRSVDK [SSN2] | 2.71 ± 0.13 | 2.78 ± 0.14 | 3.26 ± 0.088 | 2.89 ± 0.11
KAASSTRIFQALPRKLR [POP1] | 2.64 ± 0.1 | 3.36 ± 0.15 | 2.77 ± 0.086 | 2.76 ± 0.12
KAEMPPEHLRKIINTHS [PRP8] | 1.94 ± 0.089 | 1.74 ± 0.058 | 1.89 ± 0.061 | 1.82 ± 0.12
KAFKICEAAVEISKKDF [SIR3] | 3.19 ± 0.13 | 2.88 ± 0.082 | 2.85 ± 0.12 | 2.79 ± 0.14
KAIELLEKALQGATNEG [SRP72] | – | 1.14 ± 0.18 | 1.18 ± 0.22 | –
KAKVEEMNNIIAASRRH [RPL36A] | 2.85 ± 0.084 | 3.25 ± 0.075 | 3.13 ± 0.072 | 3.19 ± 0.068
KALDRHEFFIANHDDQD [SRP68] | 3.1 ± 0.058 | 2.98 ± 0.091 | 3.17 ± 0.07 | 2.89 ± 0.057
KALKTNINFASGVKNDI [CDC53] | 3.09 ± 0.089 | 3.22 ± 0.068 | 3.04 ± 0.074 | 2.83 ± 0.095
KATLELLKLIEPYVAYG [RPL7A] | 2.28 ± 0.078 | 3.24 ± 0.083 | 2.79 ± 0.047 | 3.3 ± 0.034
KCPGCLNITTVFSHAQT [RPS27A] | 2.76 ± 0.046 | 2.76 ± 0.051 | 2.99 ± 0.043 | 2.9 ± 0.045
KCPLLVEVDITLSPNVT [GRR1] | 1.8 ± 0.058 | 1.83 ± 0.065 | 2.51 ± 0.071 | 1.76 ± 0.088
KCTAEGIKVSLLGIFDD [RPC25] | 2.19 ± 0.077 | 1.69 ± 0.088 | 2.04 ± 0.061 | 2.27 ± 0.099
KDLFELERYYKEQADIY [ARP7] | 3.11 ± 0.09 | 3.34 ± 0.083 | 3.41 ± 0.067 | 3.46 ± 0.12
KDLQWLEFARITPMNDD [SIN4] | 2.94 ± 0.1 | 3.19 ± 0.088 | 3.33 ± 0.097 | 3.14 ± 0.055
